Measurements published in article PMC5583147.

Experiments:
C3b-B complex [1] = molecular target: C3b-B complex (UniProt P01024); assay: SPR; C3b amine-coupled on CM5 chip; Biacore T100, 25 C; HBS-N with 2 mM NiCl2; factor B 54 nM, Lufaxin 1 uM, together or Lufaxin after formation of C3b-B
C3b-B complex [2] = molecular target: C3b-B complex (UniProt P01024); assay: SPR; C3b amine-coupled on CM5 chip; Biacore T100, 25 C; HBS-N (10 mM HEPES pH 7.4, 150 mM NaCl) with 2 mM MgCl2; factor B 54 nM, factor D 20 nM, Lufaxin up to 1 uM injected in combinations
C3b = C3b (UniProt P01024); assay: SPR; C3b amine-coupled on CM5 chip; Biacore T100, 25 C; HBS-N with 2 mM NiCl2; factor B 54 nM, Lufaxin 1 uM, together or Lufaxin after formation of C3b-B

Sequence of Lufaxin (Q5WPU8 24-301 limits assumed): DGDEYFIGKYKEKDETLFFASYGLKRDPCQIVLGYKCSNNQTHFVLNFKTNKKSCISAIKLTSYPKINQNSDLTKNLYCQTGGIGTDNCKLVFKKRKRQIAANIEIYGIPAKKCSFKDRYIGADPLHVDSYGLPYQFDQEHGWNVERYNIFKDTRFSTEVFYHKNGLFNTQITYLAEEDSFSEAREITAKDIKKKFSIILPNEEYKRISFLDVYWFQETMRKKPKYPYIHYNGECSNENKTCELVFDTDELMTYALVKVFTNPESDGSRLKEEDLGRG
Sequence of UniProt P01024 (P01024 23-667, chain 1 of 2): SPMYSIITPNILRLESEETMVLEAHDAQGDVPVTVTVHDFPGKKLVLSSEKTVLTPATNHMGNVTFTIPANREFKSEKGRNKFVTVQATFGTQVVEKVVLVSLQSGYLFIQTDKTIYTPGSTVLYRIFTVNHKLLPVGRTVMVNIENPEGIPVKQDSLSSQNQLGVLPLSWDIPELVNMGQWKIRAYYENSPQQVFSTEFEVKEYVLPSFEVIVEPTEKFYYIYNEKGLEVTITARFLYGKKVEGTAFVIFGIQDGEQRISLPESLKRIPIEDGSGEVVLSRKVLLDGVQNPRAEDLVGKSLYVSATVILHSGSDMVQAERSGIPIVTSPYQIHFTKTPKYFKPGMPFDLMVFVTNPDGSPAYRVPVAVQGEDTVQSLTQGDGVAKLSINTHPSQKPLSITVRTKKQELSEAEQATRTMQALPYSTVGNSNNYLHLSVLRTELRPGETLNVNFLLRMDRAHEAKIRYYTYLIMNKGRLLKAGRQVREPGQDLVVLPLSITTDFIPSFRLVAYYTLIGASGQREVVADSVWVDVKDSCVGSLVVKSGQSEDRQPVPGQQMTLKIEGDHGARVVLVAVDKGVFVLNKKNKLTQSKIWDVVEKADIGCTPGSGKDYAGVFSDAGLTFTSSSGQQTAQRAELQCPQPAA
Sequence of UniProt P01024 (P01024 749-1663, chain 2 of 2): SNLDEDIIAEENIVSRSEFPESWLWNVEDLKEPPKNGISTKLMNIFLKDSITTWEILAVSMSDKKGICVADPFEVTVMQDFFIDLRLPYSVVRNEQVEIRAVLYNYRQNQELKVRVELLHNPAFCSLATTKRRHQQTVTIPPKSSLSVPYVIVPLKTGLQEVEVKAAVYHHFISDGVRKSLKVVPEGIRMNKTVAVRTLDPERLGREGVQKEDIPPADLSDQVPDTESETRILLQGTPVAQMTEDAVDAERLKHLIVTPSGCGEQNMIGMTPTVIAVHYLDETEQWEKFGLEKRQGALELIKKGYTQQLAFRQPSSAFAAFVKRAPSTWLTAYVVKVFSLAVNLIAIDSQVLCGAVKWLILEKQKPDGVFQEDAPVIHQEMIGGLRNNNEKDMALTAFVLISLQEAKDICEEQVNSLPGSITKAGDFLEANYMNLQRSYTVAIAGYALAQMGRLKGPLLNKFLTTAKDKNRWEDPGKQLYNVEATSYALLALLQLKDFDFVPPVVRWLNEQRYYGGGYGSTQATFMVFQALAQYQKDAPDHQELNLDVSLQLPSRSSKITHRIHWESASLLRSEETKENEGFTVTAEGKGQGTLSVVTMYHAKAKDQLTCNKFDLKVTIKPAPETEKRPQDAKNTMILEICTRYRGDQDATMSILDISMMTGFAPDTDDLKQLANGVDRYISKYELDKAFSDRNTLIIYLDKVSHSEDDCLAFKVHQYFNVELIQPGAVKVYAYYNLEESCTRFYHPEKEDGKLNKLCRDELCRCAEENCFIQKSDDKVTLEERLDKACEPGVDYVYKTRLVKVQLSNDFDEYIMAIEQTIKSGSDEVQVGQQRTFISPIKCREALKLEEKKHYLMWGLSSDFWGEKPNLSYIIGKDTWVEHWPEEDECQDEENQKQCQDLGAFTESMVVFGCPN

| half-time of dissociation of C3b-B-Lufaxin from the C3b surface (Ni2+) (C3b-B complex [1]) | half-time of dissociation of C3b-B-Lufaxin from the C3b surface (Mg2+) (C3b-B complex [2]) | half-time of dissociation of C3b-B (Ni2+) (C3b) | Substance |
| --- | --- | --- | --- |
| 400 s | 135 s |  | Lufaxin (natural protein) |
|  |  | 600 s | factor B (natural protein) |
